The source of these data is PMC5880400, “FIN219/JAR1 and cryptochrome1 antagonize each other to modulate photomorphogenesis under blue light in Arabidopsis” (PLoS Genetics, 2018).

For the assay, the target named is T1, CBP-CRY1 (cryptochrome1 full-length, recombinant) (Arabidopsis thaliana, UniProt Q43125 1-681).
T1 construct: cryptochrome1 (CRY1), Arabidopsis thaliana, full-length; also called CRY1/pCal-n; CRY1 full-length; source: E. coli BL21 (DE3) codon plus, purified (electroelution), acetone-precipitated and resuspended in PBS
The experiment in a line: pull-down; 5 ug purified recombinant protein mixed in 500 ul interaction buffer (50 mM Tris-HCl pH 7.5, 10 mM MgCl2, 100 mM NaCl, 1 mM PMSF, 0.04% NP-40), 4°C 1 h; GST fusions held on GSH sepharose; blot probed with antibodies against the CBP-tag. The note with it: both partners purified.

T1 sequence (Q43125 whole entry): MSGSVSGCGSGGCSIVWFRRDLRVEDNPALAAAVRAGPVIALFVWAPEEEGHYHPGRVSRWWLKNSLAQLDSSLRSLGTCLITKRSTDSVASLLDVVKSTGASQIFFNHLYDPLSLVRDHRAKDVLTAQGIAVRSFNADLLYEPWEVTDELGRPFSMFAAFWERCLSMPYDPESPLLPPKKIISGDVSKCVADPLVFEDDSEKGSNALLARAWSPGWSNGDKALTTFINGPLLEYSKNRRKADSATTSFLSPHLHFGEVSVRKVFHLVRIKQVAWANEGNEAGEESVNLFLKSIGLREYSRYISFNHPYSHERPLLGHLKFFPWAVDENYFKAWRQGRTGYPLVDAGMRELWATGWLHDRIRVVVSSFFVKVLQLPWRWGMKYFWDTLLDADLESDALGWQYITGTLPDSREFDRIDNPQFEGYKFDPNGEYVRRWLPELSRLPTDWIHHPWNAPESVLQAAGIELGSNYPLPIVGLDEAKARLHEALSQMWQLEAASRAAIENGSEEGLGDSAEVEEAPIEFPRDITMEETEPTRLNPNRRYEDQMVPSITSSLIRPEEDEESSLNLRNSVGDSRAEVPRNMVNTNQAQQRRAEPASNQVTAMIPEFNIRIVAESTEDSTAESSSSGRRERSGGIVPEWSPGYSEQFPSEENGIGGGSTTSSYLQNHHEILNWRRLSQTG

B1: GST-FIN219 (FIN219/JAR1 full-length, recombinant) (natural protein, Arabidopsis thaliana, UniProt Q9SKE2 1-575, looked up)
chain: MLEKVETFDMNRVIDEFDEMTRNAHQVQKQTLKEILLKNQSAIYLQNCGLNGNATDPEEAFKSMVPLVTDVELEPYIKRMVDGDTSPILTGHPVPAISLSSGTSQGRPKFIPFTDELMENTLQLFRTAFAFRNRDFPIDDNGKALQFIFSSKQYISTGGVPVGTATTNVYRNPNFKAGMKSITSPSCSPDEVIFSPDVHQALYCHLLSGILFRDQVQYVFAVFAHGLVHAFRTFEQVWEEIVTDIKDGVLSNRITVPSVRTAMSKLLTPNPELAETIRTKCMSLSNWYGLIPALFPNAKYVYGIMTGSMEPYVPKLRHYAGDLPLVSHDYGSSEGWIAANVTPRLSPEEATFAVIPNLGYFEFLPVSETGEGEEKPVGLTQVKIGEEYEVVITNYAGLYRYRLGDVVKVIGFYNNTPQLKFICRRNLILSINIDKNTERDLQLSVESAAKRLSEEKIEVIDFSSYIDVSTDPGHYAIFWEISGETNEDVLQDCCNCLDRAFIDAGYVSSRKCKTIGALELRVVAKGTFRKIQEHFLGLGSSAGQFKMPRCVKPSNAKVLQILCENVVSSYFSTAF
notes: FIN219/JAR1, Arabidopsis thaliana, full-length; also called GST-FIN219 full-length; FIN219FL/pGEX-4T-1; source: E. coli BL21 (DE3) codon plus, purified (GSH sepharose), acetone-precipitated and resuspended in PBS
For the molecule B1, the binding result is reported as “binds”.
